Test results from article PMC2782912.

Columns and labels:
[1] = target: HIV-1 capsid protein CA (Human immunodeficiency virus 1) (UniProt O93182); details: cited from earlier work
[2] = target: HIV-1 capsid protein C-terminal domain, CA-CTD (Met144-Leu231) (HIV-1); experiment: NMR titration

HIV-1 capsid protein CA, sequence (O93182 133-363): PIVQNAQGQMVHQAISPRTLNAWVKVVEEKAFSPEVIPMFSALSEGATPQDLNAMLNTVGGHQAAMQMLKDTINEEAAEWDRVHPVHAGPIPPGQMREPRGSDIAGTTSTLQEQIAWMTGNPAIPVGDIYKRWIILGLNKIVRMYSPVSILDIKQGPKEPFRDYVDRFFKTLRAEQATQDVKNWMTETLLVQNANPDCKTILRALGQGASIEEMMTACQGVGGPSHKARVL

Row | Substance | Kd [1] | Kd [2]
1 | HIV-1 capsid protein CA (from UniProt O93182) | 18 µM | 
2 | HIV-1 capsid protein C-terminal domain, CA-CTD (Met144-Leu231) (domain or fragment) |  | 9.8 µM
